{"source": "the DeepSol protein solubility set", "data": [{"experiment": "soluble on expression in E. coli; label from the status in PepcDB or PDB records", "values": [{"sequence": "MVAKISVGSSLFGALSYNQNKVDEEQGKVLLSNRMFESEDGNFSIRRCMECFDIHLPADLKTEKPIIHISLNPHPDDVLLDSQLADIAKEYMDKLGYGNQPYIVYKHEDIARHHIHIVSIRVDDTGKKINDKFEHIRSKQITRELEQKYGLHPAEKKQAAERPELKKVDYRAGDVKHQLSNTVKALASSYRFQSFTEYKALLSIYNVQAEEVKGEVNGKPYNGIVYSATNDKGEKQGNPFKSSSLGKSVGYEAIQRHIKKSTKDIQGKNLKERTRRTVGAVMKSTYNRKELEQELKKKGIDVLFRQNDTGRIYGVTFIDHENRTVLNGSRLGKDFSANVFNNLFSGSRTLTGNSKQEMQEHTPEFNSTGHLENTGKTIAGLFSLLSGGNDTPPDNSQVPPSKKRKKKKQRRILEHHHHHH", "soluble on expression in E. coli": "not soluble"}, {"sequence": "IGQVKYNIGGSLSDAWSKVLELANNENVPNEGKNENRLIGMPRQALYVYQTDGIFQSADEVAAYYEKYYWNADHSGPKANNILPAPQEASTNTLRPGARKVVDLNGDGAITKDDLYYAGDMAPRLTFGFKLGLEWKGIDFSAFFQGVGKQVLLRGGYLAAPWTTNYVLQNKNFAGKMWSENNRDAEYTIASRDQNFNKWNYNNKDVSVQNNRYVRLKSLVVGYSLPQKWISKAGLSKLRVYFSGDDLWEWTKVKDGYDPEYGENSNNTFPFSRLLTFGVDVTF", "soluble on expression in E. coli": "not soluble"}, {"sequence": "MSLDRNLYEDTFVVFDVETTGLSAVYDTIIELAAVKIKGGEIVDRFESFANPHHALSQTTIDLTGITDDMVNDAPEVADVLKDFHTWMGNDILVAHNASFDMGFLNQGFQRIDYEKASNPVVDTLELARFLLPELRNHRLNTLCKHLDIELTQHHRAIYDAEATGYLLWKLVQRLVEKEISNHEGHHHHHH", "soluble on expression in E. coli": "soluble"}, {"sequence": "MRYFALTDLTKPTAKFTTDAMELRQISNAYLNQAQAYLQKGLKQLKKDYKNAILYTPKTEYKRFLKWKQTFLQDLNQTQKRFFIVRAQHFSYVLLFNLLDEQVEAVIATFNNFLDEHRLEAQSKQFDLDTAVNELHDYFDQLQKNTAYSEDLPTHLTQKTEQLINARNTQLTNLLNKIATTKPPLNKQQRLLASFRNYHEHLFLKNEVKKVTWLNEPRAKKESVTPDEEH", "soluble on expression in E. coli": "soluble"}, {"sequence": "ELVMTQSPKFMSTSVGDRVSVTCKASQNVGTHVAWYQQKPGQSPKTLIYSASYRYSGVPDRFTGSGSGTDFTLTIRDVQSEDAAEYFCQQYNLFPVTFGGGTKLEIKRTVAAPSVFIFPPSDEQLKSGTASVVCLLNNFYPREAAVAWKVDNALQSGNSQESVTEQDSADSTYSLSSTLTLSKADYEKHKVYACEVTHQGLSSPVTKSFNRGE", "soluble on expression in E. coli": "soluble"}, {"sequence": "MAHHHHHHMTLTSRTAQAAHAQNDVAAQRPPPPLYPSMNVGASAVHPHQNRPCHAYDSQPAWQNPQLGTAPPAVIAGAPLAPEQQQQQTHQQGRSNQPQSIFGGRFTLLDRLGSGGFGEVYRAEECDQLVPLAVKVERVTDTNALPEQSFLFHEAKVMQEIHKSIQAYMAAQQQHQLLRLQQEKAQSGNGRRANNEAAAAADEVRQEKVGIAKLKYYGQDGMSRVLIMSLHGQSVANVHRHQGRLSLFATVMIADQVLRSLEHVHRAGYVHADLKPDNILLGREDPEQLYLVDFGLSVHFRDRKGKHRPLVTNHSFVGTPRYASLRTHMGHTLSRRDDIEQLVYVMIYLFRGRLPWSGLRISDPDAKEKRIAQMKAEMTLDSICAGCPEAFRDVLNYARCMEFEEEPQYQFLHVLLCSLRDSCTELSSDPSCVPANGSGGVMPQMLTLNVNCSTRQHPKDQNGGDAAANGGAVGVTAAEAGLVQNTNIVSGVVEQIDGVAENPMMMSSRGTGAPAFFSDAIGQGFLSGNGTDAGPLSPRIDCLNGQPFSPPPLDLQRPCGSPQLRQMR", "soluble on expression in E. coli": "not soluble"}, {"sequence": "MHHISLTPFGRQPVTAGILASQRLAEARSPLPEIDKWALFADLRTARARFGVSDRDLAVLYALLSFLPGRVLTDAAPLVVFPSNATLSDRAHGMAESTLRRHLAALVEAGLVARRDSANGKRYAHRNRAGELVTAYGFDLRPLLVRAAEIAETAAALEAEAEAMARARTALVLKLRDATKLAAYADPEGRAAGIEPRLMPIRRALRRRLTLADLAEMARTLDLVLGDIRRTLALRAAEMDGTVGRIERHHTESKTESSDLEGGHACGKTSGEAEKDCRNIGGESPDEKANRPSPNRAEPDEARPEELASLEINDNQRPAPTLPLGLVLKACPDLEPYAPEIRNWRDLTAAASRLRGMMGITPSAWEEAKAEMGAETASVALAAILQRFASIRNPGGYLRALTRRASEGAFSPTPMIMALLAETREA", "soluble on expression in E. coli": "not soluble"}, {"sequence": "MVVYGADVICASCVNAPTSKDIYDWLQPLLKRKYPNISFKYTYIDITKDNDNLTDHDLQFIERIEQDELFYPLITMNDEYVADGYIQTKQITRFIDQKLVNE", "soluble on expression in E. coli": "soluble"}, {"sequence": "MICSLFVDKVNKETYLCAMKQEYISRIRSFNRYYTKILGILNKYYLGSELGLPEVRIIQDVYLHPDRSSKDISNELNMDKGLLSRLLKQLEQKEYIFRKSTEKDNRMGLVNLTEKGCEVYYRLNTAANQSIERIFSHLEDRQLQRLVHCMDSIYKIINSVETGLTVDNNEPIVIRPIEESDNASIASVLRASVEEHGAPKVGTFYDDPHTDRMFQTFNIKGAEYWIVESNGVILGGGGFYPTKGLPHGYAELSKFHFRPELRGRGIGKRLLQFIEQRAVSAGYVYMYIVSYHQFGNAVSMYEKYGYEHIDNALDQSGLYQDAPFHMVKAL", "soluble on expression in E. coli": "not soluble"}, {"sequence": "MSLKYIIGMDVGTTATKGVLYDINGKAVASVSKGYPLIQTKVGQAEEDPKLIFDAVQEIIFDLTQKIDGKIAAISWSSQMHSLIGLGSDDELLTNSITWADNCAKSIVQDAKNRGFAQQIYRKTGMPMHPMAPIYKLLWLKNKKTEVFSQAQKWIGIKEYIIFRLTGKLVTDTTMAAGTGILNLKTLTWDQELLDILKIKKEQLPKIAQPTKVIFPIKTEYVKKLGIDSDTKIILGASDGYLSTIGVNAIDSDHCALNVGTSGAIRTIVDQPKIDPSASYFCYPADKTHYLLGGPVNNGGIVFNWARQTLFDADETPQDFLDVAQTAPAGSRNLIFLPYLGGERAPIWDANARGSFVGLTRMHQKPEMARAVIEGIIFNLYDAASNLIKNTKKPVAINATGGFLKSDFVRQLCANIFNVPIVTMKEQQSGTLAAMFLARQALGLNQDLSEIGQFAQADKVYFPNPKEAATYQKLFPLYCEIRNALAASYGKFSNINEGHHHHHH", "soluble on expression in E. coli": "soluble"}, {"sequence": "MSLTSEIIDVHMHCFVGRQQETALARDIALLRREGLRRMVVAGLVNTHPDPETTWNLIPDYVENHGDPHFNEADDLLALAESVDHALLPFVDTRYLRGDVATALDGYMGQGFKGVKGIYLPDNENDLGVGNVPDTLGISLEQYRRREWDLFAYAENHDLPLLYHMDARRYGDVMKDLLDDFPRVRVNFPHLGIGRKAFSAFLDRYPNIFTDIAGLLPYMRSNPASYRDFIMHYPDRICFGTDTFLYQAGSALDYISMVRELRLPEEIEAQVFNGNPTRFLGCVLYGAEGHHHHHH", "soluble on expression in E. coli": "not soluble"}, {"sequence": "MDDREDLVYQAKLAEQAERYDEMVESMKKVAGMDVELTVEERNLLSVAYKNVIGARRASWRIISSIEQKEENKGGEDKLKMIREYRQMVETELKLICCDILDVLDKHLIPAANTGESKVFYYKMKGDYHRYLAEFATGNDRKEAAENSLVAYKAASDIAMTELPPTHPIRLGLALNFSVFYYEILNSPDRACRLAKAAFDDAIAELDTLSEESYKDSTLIMQLLRDNLTLWTSDMQGDGEEQNKEALQDVEDENQ", "soluble on expression in E. coli": "soluble"}, {"sequence": "MIKRYTCPNGVRIVLENNPTVRSVAIGVWIGTGSRHETPEINGISHFLEHMFFKGTSTKSAREIAESFDRIGGQVNAFTSKEYTCYYAKVLDEHANYALDVLADMFFHSTFDENELKKEKNVVYEEIKMYEDAPDDIVHDLLSKATYGNHSLGYPILGTEETLASFNGDSLRQYMHDYYTPDRVVISVAGNISDSFIKDVEKWFGSYEAKGKATGLEKPEFHTEKLTRKKETEQAHLCLGFKGLEVGHERIYDLIVLNNVLGGSMSSRLFQDVREDKGLAYSVYSYHSSYEDSGMLTIYGGTGANQLQQLSETIQETLATLKRDGITSKELENSKEQMKGSLMLSLESTNSKMSRNGKNELLLGKHKTLDEIINELNAVNLERVNGLARQLFTEDYALALISPSGNMPS", "soluble on expression in E. coli": "not soluble"}]}]}
